Measurements: patent US20180258153A1 (Novo Nordisk, published 2018)
Starred links: 1 amine or outer side, 2 acyl side, 3 side chain; linkers in the order of their positions; H or OH if unused. Non-standard residues stand in square brackets, D forms with d. Groups on a side chain read outwards from the residue. No end group written: not given here. *: point of attachment. C20 diacid = O=C(O)CCCCCCCCCCCCCCCCCCC(=O)*; γGlu = O=C(O)[C@H](CCC(=O)[*:2])N[*:1]; Desaminohistidyl = O=C(CCc1c[nH]cn1)*; Trx = NC[C@H]1CC[C@H](C(=O)O)CC1; AEEA = NCCOCCOCC(=O)O; Aib = CC(C)(N)C(=O)O

Legend:
human GLP-1 receptor [1] = biological target: T1, human GLP-1 receptor (human, UniProt P43220 24-463); assay: cell-based or functional assay
human GLP-1 receptor [2] = biological target: T1, human GLP-1 receptor; assay: SPA competition, displacement of 125I-GLP-1(7-36)NH2 from BHK membranes with human GLP-1 receptor; high HSA (2.0%)
Experimental: (§1) For the receptor binding assay in the presence of low HSA (0.005%) 50 μl of the assay buffer was added to each well of an assay plate. […] For the receptor binding assay in the presence of high HSA (2%) 50 μl of the 8% albumin stock was added to each well of an assay plate. […] Cell membrane aliquots were thawed and diluted to their working concentration. Fifty μl were added to each well in the assay plate. […] WGA SPA beads were suspended in assay buffer at 20 mg/ml. The suspension was diluted to 10 mg/ml in assay buffer just prior to addition to the assay plate. Fifty μl were added to each well in the assay plate. […] A 25 μl aliquot was reserved for measuring total counts/well. […] The assay plate was incubated for 2 h at 30° C. […] The assay plate was centrifuged for 10 min. […] The assay plate was read in a Packard TopCount NXT instrument.
(§2) The data from the TopCount instrument were transferred to GraphPad Prism software. Individual replicates were analysed using non-linear regression.

human GLP-1 receptor [3] = biological target: T1, human GLP-1 receptor; assay: SPA competition, displacement of 125I-GLP-1(7-36)NH2 from BHK membranes with human GLP-1 receptor; low HSA (max. 0.001%)
Experimental: as §1, §2

Row | Binder | EC50 (pM), in vitro potency, CRE luciferase reporter in BHK cells expressing the human GLP-1 receptor (human GLP-1 receptor [1]) [pM] | IC50 (human GLP-1 receptor [2]) [nM] | IC50 (human GLP-1 receptor [3]) [nM]
1 | H[Aib]EGTFTSDVSSYLEEQAAREFIAWLVRGRGK (not fully specified (residue 32), also called Chem. 39; N{Alpha}([Aib8,Glu22,Arg26,Arg34]-GLP-1-(7-37)-peptidyl)-N{Epsilon}-acylated Lys) [GLP-1 derivative of Example 19] | 71 | 34 | 0.69
2 | [Desaminohistidyl][Aib]EGTFTSDVSSYLEEQAAREFIAWLVRGRGGK([AEEA-AEEA-AEEA-AEEA-Lys-code γGlu-Trx-C20 diacid),(γGlu-Trx-C20 diacid]) (also: branched side chain on Lys39: two identical arms on eps-Lys(Bis), also called Chem. 26; [Imp7,Aib8,Glu22,Arg26,Arg34]-GLP-1-(7-37)-peptidyl-Gly-N{Epsilon}-acylated Lys) [GLP-1 derivative of Example 6] | 150 | 140 | 1
3 | [Desaminohistidyl][Aib]EGTFTSDVSSYLEEQAAREFIAWLVRGRGGK([AEEA-AEEA-Lys-AEEA-AEEA-γGlu-Trx-C20 diacid),(Ado-AEEA-γGlu-Trx-C20 diacid]) (also: branched side chain on Lys39: two identical arms on eps-Lys(Bis), also called Chem. 27; [Imp7,Aib8,Glu22,Arg26,Arg34]-GLP-1-(7-37)-peptidyl-Gly-N{Epsilon}-acylated Lys) [GLP-1 derivative of Example 7] | 79 | 54 | 0.57
4 | HXEGTFTSDVSSYLEEQAAREFIAWLVRGRK (not fully specified; Aib at position 8 (GLP-1 numbering); epsilon-amino of Lys37 acylated with branched side chain: Pre-linker Ado; Branched linker eps-Lys(Bis); two Post-linkers Trx-gGlu-2xAdo, each carrying a C20 diacid Protractor, also called Chem. 21; N{Epsilon-37}-acylated [Aib8,Glu22,Arg26,Arg34,Lys37]-GLP-1-(7-37)-peptide) [GLP-1 derivative of Example 1] | 77 | 140 | 
5 | HXEGTFTSDVSSYLEEQAAREFIAWLVRGRK (not fully specified; Aib at position 8 (GLP-1 numbering); epsilon-amino of Lys37 acylated with branched side chain: Pre-linker 4xAdo; Branched linker eps-Lys(Bis); two Post-linkers Trx-gGlu-2xAdo, each carrying a C20 diacid Protractor, also called Chem. 35; N{Epsilon-37}-acylated [Aib8,Glu22,Arg26,Arg34,Lys37]-GLP-1-(7-37)-peptide) [GLP-1 derivative of Example 15] | 48 | 48 | 0.87
6 | HXEGTFTSDVSSYLEEQAAREFIAWLVRGRK (not fully specified; Aib at position 8 (GLP-1 numbering); epsilon-amino of Lys37 acylated with branched side chain: Pre-linker 4xeps-Lys; Branched linker eps-Lys(Bis); two Post-linkers Trx-gGlu, each carrying a C20 diacid Protractor, also called Chem. 30; N{Epsilon-37}-acylated [Aib8,Glu22,Arg26,Arg34,Lys37]-GLP-1-(7-37)-peptide) [GLP-1 derivative of Example 10] | 150 |  | 19
7 | HXEGTFTSDVSSYLEEQAAREFIAWLVRGRK (not fully specified; Aib at position 8 (GLP-1 numbering); epsilon-amino of Lys37 acylated with branched side chain: Pre-linker 2xAdo; Branched linker eps-Lys(Bis); two Post-linkers Trx-gGlu-2xAdo, each carrying a C20 diacid Protractor, also called Chem. 22; N{Epsilon-37}-acylated [Aib8,Glu22,Arg26,Arg34,Lys37]-GLP-1-(7-37)-peptide) [GLP-1 derivative of Example 2] | 70 | 49 | 0.56
8 | HXEGTFTSDVSSYLEEQAAREFIAWLVRGRK (not fully specified; Aib at position 8 (GLP-1 numbering); epsilon-amino of Lys37 acylated with branched side chain: Pre-linker dPEG6; Branched linker eps-Lys(Bis); two Post-linkers Trx-gGlu, each carrying a C20 diacid Protractor, also called Chem. 23; N{Epsilon-37}-acylated [Aib8,Glu22,Arg26,Arg34,Lys37]-GLP-1-(7-37)-peptide) [GLP-1 derivative of Example 3] | 160 | 180 | 
9 | HXEGTFTSDVSSYLEEQAAREFIAWLVRGRK (Aib at position 8 (GLP-1 numbering); epsilon-amino of Lys37 acylated with branched side chain: Pre-linker 3xAdo; Branched linker eps-Lys(Bis); two Post-linkers Trx-gGlu-3xAdo, each carrying a C20 diacid Protractor (the printed name gives (4R) for the gGlu of one arm and (4S) for the other), also called Chem. 42; N{Epsilon-37}-acylated [Aib8,Glu22,Arg26,Arg34,Lys37]-GLP-1-(7-37)-peptide) [GLP-1 derivative of Example 22] | 12 | 63 | 1.4
10 | HXEGTFTSDVSSYLEEQAAREFIAWLVRGRK (not fully specified; Aib at position 8 (GLP-1 numbering); epsilon-amino of Lys37 acylated with branched side chain: Pre-linker 2xeps-Lys; Branched linker eps-Lys(Bis); two Post-linkers Trx-gGlu, each carrying a C20 diacid Protractor, also called Chem. 29; N{Epsilon-37}-acylated [Aib8,Glu22,Arg26,Arg34,Lys37]-GLP-1-(7-37)-peptide) [GLP-1 derivative of Example 9] | 120 | 150 | 1.8
11 | HXEGTFTSDVSSYLEEQAAREFIAWLVRGRK (Aib at position 8 (GLP-1 numbering); epsilon-amino of Lys37 acylated with branched side chain: Pre-linker 2xAdo; Branched linker eps-Lys(Bis); two Post-linkers Trx-gGlu, each carrying a C20 diacid Protractor, also called Chem. 31; N{Epsilon-37}-acylated [Aib8,Glu22,Arg26,Arg34,Lys37]-GLP-1-(7-37)-peptide) [GLP-1 derivative of Example 11] | 130 | 150 | 1.5
12 | HXEGTFTSDVSSYLEEQAAREFIAWLVRGRK (not fully specified; Aib at position 8 (GLP-1 numbering); epsilon-amino of Lys37 acylated with branched side chain: Pre-linker 2xAdo; Branched linker eps-Lys(Bis); two Post-linkers Trx-gGlu-4xAdo, each carrying a C20 diacid Protractor, also called Chem. 34; N{Epsilon-37}-acylated [Aib8,Glu22,Arg26,Arg34,Lys37]-GLP-1-(7-37)-peptide) [GLP-1 derivative of Example 14] | 19 | 27 | 0.42
13 | HXEGTFTSDVSSYLEEQAAREFIAWLVRGRK (Aib at position 8 (GLP-1 numbering); epsilon-amino of Lys37 acylated with branched side chain: Pre-linker 6xAdo; Branched linker eps-Lys(Bis); two Post-linkers Trx-gGlu, each carrying a C20 diacid Protractor, also called Chem. 32; N{Epsilon-37}-acylated [Aib8,Glu22,Arg26,Arg34,Lys37]-GLP-1-(7-37)-peptide) [GLP-1 derivative of Example 12] | 57 | 17 | 0.63
14 | HXEGTFTSDVSSYLEEQAAREFIAWLVRGRK (Aib at position 8 (GLP-1 numbering); epsilon-amino of Lys37 acylated with branched side chain: Pre-linker 8xAdo; Branched linker eps-Lys(Bis); two Post-linkers Trx-gGlu, each carrying a C20 diacid Protractor, also called Chem. 33; N{Epsilon-37}-acylated [Aib8,Glu22,Arg26,Arg34,Lys37]-GLP-1-(7-37)-peptide) [GLP-1 derivative of Example 13] | 47 | 32 | 0.17
15 | HXEGTFTSDVSSYLEEQAAREFIAWLVRGRK (not fully specified; Aib at position 8 (GLP-1 numbering); epsilon-amino of Lys37 acylated with branched side chain: Pre-linker 4xAdo; Branched linker eps-Lys(Bis); two Post-linkers Trx-gGlu-Ado, each carrying a C20 diacid Protractor, also called Chem. 41; N{Epsilon-37}-acylated [Aib8,Glu22,Arg26,Arg34,Lys37]-GLP-1-(7-37)-peptide) [GLP-1 derivative of Example 21] | 38 | 19 | 1.5
16 | HXEGTFTSDVSSYLEEQAAREFIAWLVRGRK (not fully specified; Aib at position 8 (GLP-1 numbering); epsilon-amino of Lys37 acylated with branched side chain: Pre-linker dPEG20; Branched linker eps-Lys(Bis); two Post-linkers Trx-gGlu, each carrying a C20 diacid Protractor, also called Chem. 25; N{Epsilon-37}-acylated [Aib8,Glu22,Arg26,Arg34,Lys37]-GLP-1-(7-37)-peptide) [GLP-1 derivative of Example 5] | 53 | 9.7 | 0.91
17 | HXEGTFTSDVSSYLEEQAAREFIAWLVRGRK (Aib at position 8 (GLP-1 numbering); epsilon-amino of Lys37 acylated with branched side chain: Pre-linker 4xAdo; Branched linker eps-Lys(Bis); two Post-linkers Trx-gGlu, each carrying a C20 diacid Protractor, also called Chem. 28; N{Epsilon-37}-acylated [Aib8,Glu22,Arg26,Arg34,Lys37]-GLP-1-(7-37)-peptide) [GLP-1 derivative of Example 8] | 72 | 45 | 1.1
18 | HXEGTFTSDVSSYLEEQAAREFIAWLVRGRK (not fully specified; Aib at position 8 (GLP-1 numbering); epsilon-amino of Lys37 acylated with branched side chain: Pre-linker dPEG12; Branched linker eps-Lys(Bis); two Post-linkers Trx-gGlu, each carrying a C20 diacid Protractor, also called Chem. 24; N{Epsilon-37}-acylated [Aib8,Glu22,Arg26,Arg34,Lys37]-GLP-1-(7-37)-peptide) [GLP-1 derivative of Example 4] | 110 | 51 | 0.78
19 | H[Aib]EGTFTSDVSSYLEEQAAREFIAWLVRGKG (not fully specified (residue 30), also called Chem. 38; N{Epsilon-36}-acylated [Aib8,Glu22,Arg26,Arg34,Lys36]-GLP-1-(7-37)-peptide) [GLP-1 derivative of Example 18] | 37 | 24 | 0.68
20 | H[Aib]EGTFTSDVSSYLEEQAAREFIAWLVRKRG (not fully specified (residue 29), also called Chem. 37; N{Epsilon-35}-acylated [Aib8,Glu22,Arg26,Arg34,Lys35]-GLP-1-(7-37)-peptide) [GLP-1 derivative of Example 17] | 20 | 77 | 0.64
